From the DeepSol protein solubility set

Assay: soluble on expression in E. coli; label from the status in PepcDB or PDB records

Sequence | soluble on expression in E. coli
GPGSMIRTTAAAARLPQSTQGWVPLMRRALEFPIDSVTFPSHFYLHTVTNGTASTVGFSPQKEPVGLTALRQCAVLVLLSPAATGNGFQDMCITLTKRTATMGSHKSEMSFPGGHVDDDETLRNAAQRETLEEVGLPPSEYEIIGSLTPITTNALSARVTPFVAVATSPAQPYRASPVEVDSIHYLHMSMLLLSASTGHARVIKYRSFTSDRPCFFPCFFASPAQTVVSSAVCRSPKATGVADDCGFDPMLPEDF | not soluble
GPGSMKRHGVRLRRSIKETAVTIGCDEAGRGPLAGPVVGAAVSRIPVSSFNNEFDQLYEAPEQFQIFDSKSVSERQRDLVFAMITGHVDFFDIASCKKFVVHHCAGDEATSLTLSSKKLDSHVKLSKLPFKKLLSMQTPYLITYHGYNSAGNYVYFWSIGIANHTYIDEYNIYNASMNTMHRSAQSIWHMLSDARFSHEAAPRPRSSSIAQYLFSRFCTAANHDNEKRYQVPHHLELLKGATEYFDFEPIQPPLVLIDGHAVPGPSYDYFTSVRIGGDVQPIIEGDKRSLSIAAASCLAKVTRDELMNYIDALYPGYGFRDNKGYPVEQHMKYVAKNGLCPIHRKTYRPCRTVLEKGLQRK | not soluble
GPGSMLARGCVLRWHAVSARRVLGLHDGQSYTPADIKKAFRERALTAHPDAGGDADGFRQLQRAYEVLLHEHSVGKKGSEAAAASDDSEGGSGFYAHPHAEWCNDMRSQRAYWRDMYTEMNMNPNSCGSHRHASNTHYQARQHYRTYGEGLGEDFQKEFKSSSFAGGGQRGSQMNFSTWYFYRPYYSNYRNPFGTGFTPEEIRRAEQEQRRGFARAVARHACLWSGLAFVVYLHERNNRVWRAVEARDKGYKDPEYWEQLRKDEEEARRRSRAPLRLEQHWLDAPLMRSLMDLTEGGHSGGCGKNGQDAEDNISGAARAGTAWATQQARMAQERRRQAMSSTRGMRRGASGDVGGPRVVSYQGRPFTPNGVRGMRNTAPKTPKTYADDVTYEMDDDDDV | not soluble
GPGSMLHPYIAGFDGLTCVAGTPADTLARNPDTGTTGRGTGSGVEGVFGTSLDVAGQLAGFETLTSASLNNNFLYDGLPSSGVTLREPLLSTHLTRSPTTLSTVGEAAMQPTQNPTQTPQQDPLPDLNTLATNAFFPFPSAAGAASAEGGQQQMATANLYGASQLESIMKASAGDGKSASTAPEPAANNLLGRLTVSTLAAQSATPGTSPQSQPCPVPQFTPLGAGACSNASRSSAPSYSSASVPIGCGPQMCSGDTSFLYPNFVNEMSSVTPPQSVQGHTEGFVAGVTTPPAMPMNSSTMSNKGGSMNDNTSTSLSQATSSGIATSSGQPNDVEVRSNLFVCGLPVSVRDKELLELFEKHGEIESAKVMLDIHTGRIRGIAFVKFKNVEHAENAVDALNGTTVNGHQITVRVANSRAAYLPGNPTNKTFVRNVPLTVSRTTLFEYFAQFGEVTDLSIKSDTAQGRHNPSGRSASTTEDGADDKLNIVFITYSTKEAAAKAAEATHTKTPFKECNGVPLLAKVAEDTVRRMERLSRRQRPATGAEGTREVSTSSSSTNVASMSRFAAPSMGAALPTGMMMPPMMPMAGSFPPGTFVSVPTMGNTPDLTAPTMMPASVAGDHMTALRDASGNPIYSPAQPNPATATGGMAYAMPGNMAQPSIFFSAQPPPPAINQSPPQQSQQQPQAQPQTLYISTPNGFVPAPQQHQQQQQLPQPPPPQQQQPLQFFPAPPLLPQVPQQSQQTMPMPGAAPGQLVYMQTPNGSMMPVMYGGAQPATASMLPTQQMNPYFVMMGGQPPSNQ | soluble
GPGSMNPHSRMPEDGGNAQPNETHRLMVGAAGQRPNVSGQFGKSTSPSLVAFAFLHLPLEDGCGAEEEEQNFLAFDVTTWATRIRNEGISGAVVDLWGAYNYYWHQADDRVQLALDSLASWMHALEMDRDPADRFTDLGRILLQVFWLQMMVTTANPGITISTLCARLHMAVHEAETCARATKPLA | soluble
GPGSMNRAESSANALGEEFVKNMNTALDIVESLVAKGEAQFAILASAKSTFCVGADIDQMYTVTDPAVAVQVPTVGHKLFNRIEQEKFPIVAAINGLALGGGFEMSLACHQRLMASTAKVGFPECLLGLLPGGGGTVRTQRLCGLTKTVQWIMTSKQIKPQEAKSAGACDVIIPADDRWNGEHRFYEGVRKWAGQYLSNKPARLSKRKNISLMDQVLENTTFGRRKVADETIKMLNKKTRGKYIAQYKALECIMYSATHSNQQGFDKECRGFAELLCSPEAKNQMSLYFLQEGMKKSADKTGVPKDKVMPVNRVGVIGAGVMGSGIVHYFAKNNIPVAVKDLTEESVKQGITNVRAEFERAVRRKRMVTAELDGKMALVTGGTTNEVFRDADVIVEAAVEVMDIKKKVIQQLEKDGILHSKSLFATNTSSLSLTEMQTVAKCPHNIVGMHFFNPVSKMPLVEVIKGKSTSTEAAAAIFNLALKTGKIPIIVNDGPGFLVNRILGVYMAEAGRLAVDERCHPACVDEAILAFGMPMGPFRLLDEVGLDVACHVGPVLANGLKSDRFSVSATISQMVADGYLGRKNRKGFYTYAAEGKEAGLNSAVLQKYLGEELSASISETEIVDRCVLLMVNEATRILDEGIAMSPEDVDTGMVWGTGFPPFRGGLLQYADHRGIANVVAALEQLQRKTKRDYFAPTETLKKMAIEGKRFFPTRPYVPYQERHGYPKVTY | not soluble
GPGSMPPKKKVERKEEQVFVEENGSYVHQREMARYTGGVRRLTDSNFCCRHGQGTYSSPLIHYEGNWSEDEMHGNGTLRFLVSGDSYTGQFVHGVMEGCGTYIWASGAMYDGGWRGNRMHGLGTYTDVGGKVWSGKFYNGSGPGLTPCVTTGGGVAAADKRDVLKDEKEG | not soluble
GPGSMPRGAIPTGQDWEEQRFNFQQRGSGGSAQPRKVTERDANRAMQSGQNVQVQRKEHQRFNQQTVSAGANAKKLDEDNETLKVKKVDPHLRVRIMKERQALNWSQQDLAQRISERVSVVAEYESGKAVQEERVIVKMEKALGVHLRGAKAGEPMGKTRPAPKAQE | soluble
GPGSMPSKEASSRNLPISGRDTNGKTYRSTDEMWKAELTGDLYDPEKGWYGKALEYWRTVPATVSGVLGGMDHVHDVDIEGSRNFIASLPGHGTSRALDCGAGIGRITKNLLTKLYATTDLLEPVKHMLEEAKRELAGMPVGKFILASMETATLPPNTYDLIVIQWTAIYLTDADFVKFFKHCQQALTPNGYIFFKENCSTGDRFLVDKEDSSLTRSDIHYKRLFNESGVRVVKEAFQEEWPTDLFPLKMYALK | soluble
GPGSMRDLNKRQQKFVCGCLGITSWDGKDIPFYVETMPKINDVVWVKITQVNDTSAVVQLLEYGKREGIIPYTEVTRRRVRSMGKLIKVGRTEPAQVIRIDKDKGYIDLSKKLVTPNEAKACEAHFRQGNEVRSIVCHVAELCDIPAMDAMEMIAYPLYQREPGKHAWTWLYELNQTEDVERILGPLKLEKAISDCLMLTLKNAMRLKVLTLFAEVEITCFACDGVEAIRDVLILGRSYGEGSDPQIHLSVNIIGPPKYGIRARTDMKEEGIQRMKEAIEAMTAEIKKRGGQLKVVSPPQPHGDADEGKKGFDGEDDDDEDAD | soluble
GPGSMRGKTKKRKIYKRFSSLPKTETSTLPTVHSHTTCIRVQHVSHHLHAYICTLVSGMSHHRMWPSPITPSRTDATTTTTKTTTKNDTYSPHKKNTNTPHAKGRSYIVNLCHSFYSPTGDETVIWVTNVVRSCAAKYNYIPHILHSHETLVKRRCNENAANEKCLIRC | not soluble
GPGSMSAAVTWLQNSLGIDVTGEWARHVHLNVGGTLYTTRRYTLRELKDHRIFGPILDGHAHRCEDGSFLIDRDGSLFRYIIAYLRDGRLSVPENFAEWDMLLQEVRYYELPAMEKSVMDHFEFQQSVFRRQLPHGVYVWWPPASSQIEEGATVKAAPCDCPASVPPPPLSLFALPITDSATGRCEARGATEDQTRALEKVHVEAAADAATRSSAGAAPSSCSSASMSVRIVPPLPGLTVEMSSGRRVMFRETQVLQDLDQLVTVLLTAYGFSIQHWDTERGRVLLTLPGLM | not soluble
GPGSMSAIVPAAHAREDMGGCAPCRVSSFHPCEGDGAEEKECNASSGADAAAAAEPLDPLRCFSAFDVLRDVLAACTCAPALSRSTEKGADSPSLLPGAPLPSAWRTEQTREALRTLVDLVAADVGVSSARHGQGEAPEEAEIARSRLSVDALLLHLTTEGPNLRAALRRRRRQLLPMPPRDDATTQSEREACDEAHAACEEDEALAALTRCAASVALINRDLGSSARKGRKAVQTAASCVLQTRTALSLLRTSSLVHQPLRAGAGHAAASRSAIAAADVSAYWCSTGCMGLDQALGGGGFRSGWVTEVYGEAGAGKTQLGLQCLLQQAATDVCHAAVALALASGADFTSLAHMATTTGMCGSRSPVVKCMEVFDRDAVEAARCAVVYLVSEDVPTSRLGPLAAAAVGRAVRAVRLHPLVNQLPSGVVKTVWGCVERTCTVPTVLSRLQIRHVASVAEVLRLLEPLPHPQLAQVSRTSSPPNVIPNRAQRPRNSNLVEAVRVLAGTHGRAVVVLDSVAAAVVAGQWDMQGVAQADATVTALSLRLRQAAMTHNWCIVVTNQVRAIPTTARQRQCALAPIKRARSPTTSSTASAPSVTRTVVPALGFSWASAAHCRVFLRKSLSHGVRQLVLRHAPSHPPAQASYLITEHGIEDA | not soluble
GPGSMSKGFEVYPLTGSHKEVVINEALIRSAISFKPSLTTEDDRVRVVGNQEKALCEEKVQKEAAGIALEDVQTLLLSFRGIKRLENLSCLRSLTKLHLDNNRIRCIEHLESLVHLEWLDLSYNAIEVIDGLQALQHLNCLSLYANKITAVDGLTCLPELNTLSLGRNPLENIDETVHYLHHLPRLQVLTLKECPLAGLPNYRSRVLAFVRGLKFFDGHLVRHDEAAKAREAFRENLLTVDEEDEARAAAAKLQADQEIIASSYQQYNCPNEVMLFDELLHLDPEGRHMEAILRSEAVFSVAKEPLDRYQTEFNEQLRQLTAAMKDIRERRDADDAAYREAVTYTLRHSAAASLASMQRFEALAKGHIVKGVAQPVPGPAKRLPSQATRSLHAALDKLKKDLLEEEAHQYDVLEVLHNNTIAKWKSHSVEVVLQSSFEALLRLETDFQATVRHIFDAVFEERRKGDNAERAFRYVGQDDAMLAFLDNKEEYQRTVNEWYELRRKRVEELEMHHLKAEETLLNARANSILAAEQDRHRRRVHEVCQYVKEMSSRIDGCDH | not soluble
GPGSMSKQLTFISAGATAAVLQSASAIVSKVAGGRVQTKTAKEAGRHAVVVGPETPIGVHTAVTEAPKSAQDPLFSGVSTVVVRAVLPRAAPDSVQLRDALDVYASAGIDTKEEVRSATEAFKKSAEVAVGKAKAKGVKRIVLVVKQASKHNCINELFKKISTETIESAGLTTEVVGTASVANQLIVNPESLGVVLLNDVAATEQIELAFAGVVGGVSRVYHTVEGGKISAGHSFKSVALAVAQELRELGLSSEADKVEAAASKNPRAVVSAL | not soluble
GPGSMSMNVYKRQEKLRLYRALLKGANRFPLRSRREIVTEEVRGAFRHPLNDSLTTKEVDYKLLLGWERAAAIQTYAENMYWFHSRDEVSREMMHHSLERDRQRIREMERCNAVGNAEIKTPEVTEFKSSMYHVHPDYHGKIGQMPLTHSRDIWRARGQYGSDVGGPRQKFYVRRFKALFPQGW | not soluble
GPGSMSRTQTSSKSVPKNIAVYCRVRPPVPNEKGHTFQNISYDDSDSRAIAVARKSGTKALEKTYLFNRVFRPTATQKDVYETFAKGAVDAAFDGQHGVLFVYGQTGSGKTFTISNDEPNNEGVLQRSMRDIWNRIASDTANDYSCSVSYVQLYNEILTDLLDDAKGKVRIQMGSEGRGDVVMVSDSTGMAIEREVKDYKSTMACFQVGLARKEMASTSMNSTSSRSHTIFTLNIVKAKKVVAVTV | not soluble
